Laboratory results reported in article PMC5531254.

What was measured:
PIH1D1 [1] = biological target: PIH1D1 (UniProt Q9NWS0); experiment: anti-FLAG co-IP, MYC blot; conditions: reference: FLAG MRE11 wild type
PIH1D1 [2] = biological target: PIH1D1 (UniProt Q9NWS0); experiment: GST pull-down with FLAG-purified MRE11; conditions: reference: FLAG MRE11 wild type

| Substance | binding against the reference (PIH1D1 [1]; sites S558,S561) | binding against the reference (PIH1D1 [2]; sites S558,S561) | binding against the reference (PIH1D1 [1]; sites S688,S689) | binding against the reference (PIH1D1 [2]; sites S688,S689) |
| --- | --- | --- | --- | --- |
| MRE11 (from UniProt P49959) M1 (S558A/S561A) | weaker | weaker | – | – |
| MRE11 (from UniProt P49959) M3 (S688A/S689A) | – | – | weaker | weaker |
